From patent US20110008492

Biological target: kappa-casein of bovine (cow's) milk, P02668
Sequence (P02668 22-190): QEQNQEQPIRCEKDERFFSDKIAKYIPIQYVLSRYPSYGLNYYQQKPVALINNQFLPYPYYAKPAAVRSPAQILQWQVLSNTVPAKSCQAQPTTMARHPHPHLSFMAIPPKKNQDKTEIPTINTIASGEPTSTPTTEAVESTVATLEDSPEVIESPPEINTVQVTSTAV

B1: bovine (calf) chymosin B, recombinant (protein)
chain: GEVASVPLTNYLDSQYFGKIYLGTPPQEFTVLFDTGSSDFWVPSIYCKSNACKNHQRFDPRKSSTFQNLGKPLSIHYGTGSMQGILGYDTVTVSNIVDIQQTVGLSTQEPGDVFTYAEFDGILGMAYPSLASEYSIPVFDNMMNRHLVAQDLFSVYMDRNGQESMLTLGAIDPSYYTGSLHWVPVTVQQYWQFTVDSVTISGVVVACEGGCQAILDTGTSKLVGPSSDILNIQQAIGATQNQYGEFDIDCDNLSYMPTVVFEINGKMYPLTPSAYTSQDQGFCTSGFQSENHSQKWILGDVFIREYYSVFDRANNLVGLAKAI
With B1 the Specific activity (IMCU/mg) was 223 IMCU/mg and the Time to clotting was 12 to 13 min.

B2: camel chymosin (Camelus dromedarius chymosin, recombinantly produced) (protein)
chain: GKVAREPLTSYLDSQYFGKIYIGTPPQEFTVVFDTGSSDLWVPSIYCKSNVCKNHHRFDPRKSSTFRNLGKPLSIHYGTGSMEGFLGYDTVTVSNIVDPNQTVGLSTEQPGEVFTYSEFDGILGLAYPSLASEYSVPVFDNMMDRHLVARDLFSVYMDRNGQGSMLTLGAIDPSYYTGSLHWVPVTLQQYWQFTVDSVTINGVAVACVGGCQAILDTGTSVLFGPSSDILKIQMAIGATENRYGEFDVNCGNLRSMPTVVFEINGRDYPLSPSAYTSKDQGFCTSGFQGDNNSELWILGDVFIREYYSVFDRANNRVGLAKAI
For B2, the Specific activity (IMCU/mg) was 462 IMCU/mg and the Time to clotting was 12 to 13 min.
